# From patent publication US5690954A, “Enhanced uptake drug delivery system having microspheres containing an active drug and a bioavailability improving material” (priority 1987, dated 1997)
# Key:
# [1] = Comparative studies: nasal insulin with various materials with and without starch microspheres; assay type: in vivo; conditions: sheep; for decrease in plasma glucose and increase in absorption versus starch microspheres alone: nasal powder
# Method: A series of studies were carried out to determine the effect on the administration of insulin of various enhancers with and without microsphere particles. All of the studies were carried out in sheep and the insulin was administered intranasally either in solution or powder formulation. The preparation of the various insulin formulations and the method of administration and result taking were all as described earlier.
# [2] = Bioavailability enhancement by microspheres plus bioavailability increasing material (general statement); conditions: microspheres with lysophosphatidylcholine
# Description: The material selected for these studies has been lysophosphatidylcholine (described above).
# [3] = without enhancer; cited from earlier work
# [4] = intranasal with Laureth 9; cited from earlier work
# [5] = nasal, sodium deoxycholate; cited from earlier work
# [6] = dogs, powder with cellulosic material and Carbopol 934; cited from earlier work
# [7] = rats, nasal polyacrylic acid gel, versus normal formulation; cited from earlier work
# [8] = Insulin nasal in sheep, plasma glucose and plasma insulin
# [9] = intranasal simple solution, 2 IU/kg
# [10] = intranasal solution with 0.2% LPC
# [11] = intranasal starch microspheres and LPC
# [12] = intranasal starch microspheres and LPC, 2 IU/kg
substance,measurement,setting,value
insulin: Zn-crystallized highly purified semisynthetic human insulin (sheep studies),shape of absorption profile,[1]; nasal,sharp peak
same,plasma glucose level versus insulin in GDC solution,"[1]; nasal 2 IU/kg, GDC 0.08 mg/kg and starch microspheres 2.5 mg/kg",decreased considerably more
same,absorption (plasma insulin levels),"[1]; nasal 2 IU/kg, GDC and starch microspheres",enhanced absorption
same,decrease in plasma glucose and increase in absorption versus starch microspheres alone,[1]; starch microspheres with N-acetyl cysteine,considerably increased
same,decrease in plasma glucose and increase in absorption versus starch microspheres alone,[1]; starch microspheres with aprotinin,considerably increased
same,effect on plasma glucose levels versus LPC-M alone in solution,"[1]; nasal, LPC-M and starch microspheres",considerably increased effect
same,"enhancement concept, outcome",[2],successful
same,absorption efficiency across the nasal membrane,[3],about 1.2 % of the administered dose
same,appearance of peak level,[4],rapidly
same,dose response,[4],clear dose response relationship
same,effect of increasing amounts of bile salt on absorption,[5],striking effect
same,absorption after nasal application,[6],increase the absorption
same,plasma glucose levels,[7],significant decrease
same,shape of plasma glucose profile versus intravenous insulin,[8]; intranasal insulin-microsphere-enhancer system,very similar to the one obtained for the intravenous insulin
same,amount of insulin absorbed,[8]; [9],very low
same,effect on plasma glucose level,[8]; [9],does not have a significant effect
same,amount of insulin appearing in the circulation,[8]; [10],increases the amount of insulin appearing in the circulation
same,plasma glucose level,[8]; [10],somewhat lower
same,decline of insulin level after peak,[8]; [11],decreases rapidly as for intravenous insulin
same,relative bioavailability versus subcutaneous injection,[8]; [11],about 25%
same,time of peak insulin level,[8]; [11],15 to 20 min
same,increase in AUC of plasma insulin versus simple nasal solution,[8]; [12],693%
same,increase in peak insulin level versus simple nasal solution,[8]; [12],1040%
